Laboratory results reported in US20200148732A1 (UNIVERSITY OF COPENHAGEN, published 2020).

Biological target: T1, GFP-TONSL E568A (Homo sapiens, UniProt Q96HA7 1-1378)
T1 construct: also called TONSL E568A / GFP; not shown: N-terminal GFP tag
T1 sequence: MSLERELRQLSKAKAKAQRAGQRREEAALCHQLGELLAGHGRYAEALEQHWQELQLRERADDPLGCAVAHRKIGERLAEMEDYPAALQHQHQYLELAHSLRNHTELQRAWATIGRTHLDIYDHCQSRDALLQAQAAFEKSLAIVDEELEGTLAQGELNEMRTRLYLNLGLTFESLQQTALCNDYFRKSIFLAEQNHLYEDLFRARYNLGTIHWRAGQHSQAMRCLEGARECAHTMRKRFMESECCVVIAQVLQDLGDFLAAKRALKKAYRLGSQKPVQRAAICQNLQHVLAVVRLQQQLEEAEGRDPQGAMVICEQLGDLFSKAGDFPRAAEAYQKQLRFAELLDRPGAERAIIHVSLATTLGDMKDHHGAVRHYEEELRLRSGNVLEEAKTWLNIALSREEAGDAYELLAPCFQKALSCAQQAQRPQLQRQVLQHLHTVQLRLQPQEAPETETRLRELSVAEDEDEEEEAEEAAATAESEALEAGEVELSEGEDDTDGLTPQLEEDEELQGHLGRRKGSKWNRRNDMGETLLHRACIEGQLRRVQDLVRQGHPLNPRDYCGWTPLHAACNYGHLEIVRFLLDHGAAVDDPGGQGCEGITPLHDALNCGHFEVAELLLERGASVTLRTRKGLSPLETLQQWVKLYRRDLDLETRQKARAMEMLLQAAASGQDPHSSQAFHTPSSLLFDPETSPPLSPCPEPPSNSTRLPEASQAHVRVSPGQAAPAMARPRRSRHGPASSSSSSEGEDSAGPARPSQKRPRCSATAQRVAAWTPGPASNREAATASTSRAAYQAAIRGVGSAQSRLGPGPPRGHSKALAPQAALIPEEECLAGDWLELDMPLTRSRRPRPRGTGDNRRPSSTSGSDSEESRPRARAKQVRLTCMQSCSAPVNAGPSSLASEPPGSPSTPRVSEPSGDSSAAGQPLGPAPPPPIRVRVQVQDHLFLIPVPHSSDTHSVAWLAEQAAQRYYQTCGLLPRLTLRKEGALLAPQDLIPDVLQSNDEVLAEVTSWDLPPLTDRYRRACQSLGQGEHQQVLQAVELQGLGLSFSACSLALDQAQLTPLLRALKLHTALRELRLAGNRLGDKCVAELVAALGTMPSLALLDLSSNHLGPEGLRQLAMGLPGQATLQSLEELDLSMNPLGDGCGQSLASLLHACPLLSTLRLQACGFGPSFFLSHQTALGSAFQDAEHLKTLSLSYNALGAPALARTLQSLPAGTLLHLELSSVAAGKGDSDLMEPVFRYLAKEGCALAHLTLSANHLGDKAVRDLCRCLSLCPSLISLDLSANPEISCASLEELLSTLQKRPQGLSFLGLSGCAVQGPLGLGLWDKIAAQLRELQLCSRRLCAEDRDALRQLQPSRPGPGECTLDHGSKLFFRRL
Assay: GFP immunoprecipitation of GFP-TONSL from transfected HeLa S3 cells, western blot (co-IP; association may be indirect)

binding result: binds
B1: MMS22L (endogenous, in cell extracts) (other, UniProt Q6ZRQ5 1-1243, looked up)
chain: MENCSAASTFLTDSLELELGTEWCKPPYFSCAVDNRGGGKHFSGESYLCSGALKRLILNLDPLPTNFEEDTLEIFGIQWVTETALVNSSRELFHLFRQQLYNLETLLQSSCDFGKVSTLHCKADNIRQQCVLFLHYVKVFIFRYLKVQNAESHVPVHPYEALEAQLPSVLIDELHGLLLYIGHLSELPSVNIGAFVNQNQIKLFPPSWHLLHLHLDIHWLVLEILYMLGEKLKQVVYGHQFMNLASDNLTNISLFEEHCETLLCDLISLSLNRYDKVRSSESLMSDQCPCLCIKELWVLLIHLLDHRSKWFVSESFWNWLNKLLKTLLEKSSDRRRSSMPVIQSRDPLGFSWWIITHVASFYKFDRHGVPDEMRKVESNWNFVEELLKKSISVQGVILEEQLRMYLHCCLTLCDFWEPNIAIVTILWEYYSKNLNSSFSISWLPFKGLANTMKSPLSMLEMVKTCCCDKQDQELYKSSSSYTIFLCILAKVVKKAMKSNGPHPWKQVKGRIYSKFHQKRMEELTEVGLQNFFSLFLLLAAVAEVEDVASHVLDLLNFLKPAFVTSQRALIWKGHMAFLLMYAQKNLDIGVLAEKFSCAFREKAKEFLVSKNEEMVQRQTIWTLLSIYIDGVQEVFETSYCLYPSHEKLLNDGFSMLLRACRESELRTVLSFLQAVLARIRSMHQQLCQELQRDNVDLFVQSSLSAKERHLAAVASALWRHFFSFLKSQRMSQVVPFSQLADAAADFTLLAMDMPSTAPSDFQPQPVISIIQLFGWDDIICPQVVARYLSHVLQNSTLCEALSHSGYVSFQALTVRSWIRCVLQMYIKNLSGPDDLLIDKNLEEAVEKEYMKQLVKLTRLLFNLSEVKSIFSKAQVEYLSISEDPKKALVRFFEAVGVTYGNVQTLSDKSAMVTKSLEYLGEVLKYIKPYLGKKVFSAGLQLTYGMMGILVKSWAQIFATSKAQKLLFRIIDCLLLPHAVLQQEKELPAPMLSAIQKSLPLYLQGMCIVCCQSQNPNAYLNQLLGNVIEQYIGRFLPASPYVSDLGQHPVLLALRNTATIPPISSLKKCIVQVIRKSYLEYKGSSPPPRLASILAFILQLFKETNTDIYEVELLLPGILKCLVLVSEPQVKRLATENLQYMVKACQVGSEEEPSSQLTSVFRQFIQDYGMRYYYQVYSILETVATLDQQVVIHLISTLTQSLKDSEQKWGLGRNIAQREAYSKLLSHLGQMGQDEMQRLENDNT
